Like-named read-outs stand apart in the source and are kept apart here.
Columns and labels:
[1] = target: T1, human CEACAM5 expressed on human cancer cell lines (MKN-45, NCI-H441, SK-CO-1, SNU-16, LS174T) (human, UniProt P06731 35-685); assay: cell-based or functional assay
T1 sequence: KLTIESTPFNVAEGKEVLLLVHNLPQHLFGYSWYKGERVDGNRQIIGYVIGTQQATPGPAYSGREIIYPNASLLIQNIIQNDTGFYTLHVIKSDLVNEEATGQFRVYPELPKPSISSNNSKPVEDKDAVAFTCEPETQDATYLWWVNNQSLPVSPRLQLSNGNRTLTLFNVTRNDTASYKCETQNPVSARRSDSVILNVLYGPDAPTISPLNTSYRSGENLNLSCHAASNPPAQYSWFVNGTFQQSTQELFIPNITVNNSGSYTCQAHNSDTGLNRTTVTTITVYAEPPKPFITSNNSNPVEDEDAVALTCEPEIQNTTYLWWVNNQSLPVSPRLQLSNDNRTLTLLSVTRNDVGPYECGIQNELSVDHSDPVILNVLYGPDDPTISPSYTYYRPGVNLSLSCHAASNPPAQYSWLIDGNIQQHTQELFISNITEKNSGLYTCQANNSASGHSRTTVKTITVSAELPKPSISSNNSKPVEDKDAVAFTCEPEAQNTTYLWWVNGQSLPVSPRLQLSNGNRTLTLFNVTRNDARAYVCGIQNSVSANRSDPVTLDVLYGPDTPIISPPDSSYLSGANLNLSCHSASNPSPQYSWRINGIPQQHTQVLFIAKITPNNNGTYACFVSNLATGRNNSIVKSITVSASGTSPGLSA

[2] = target: T1, human CEACAM5 expressed on human cancer …; assay: cell-based or functional assay; remark: listed apart in the source
[3] = target: T1, human CEACAM5 expressed on human cancer …; assay: binding to MKN-45 cells
[4] = target: T1, human CEACAM5 expressed on human cancer …; assay: flow cytometry on MKN-45 cells, antibody titrated
[5] = target: T1, human CEACAM5 expressed on human cancer …; assay: cell-based or functional assay; remark: listed apart in the source
[6] = target: T1, human CEACAM5 expressed on human cancer …; assay: cell-based or functional assay; remark: listed apart in the source
[7] = target: T1, human CEACAM5 expressed on human cancer …; assay: cellular binding on MKN45 cells (FIG. 2)

B1: ADC1-M (conjugate of mAb1-M with DL1) (antibody, human IgG1, kappa, L234A L235A)
heavy: EVQLQESGPGLVKPSQTLSLTCTVSDGSVSRGGYYLTWIRQHPGKGLEWIGYIYYSGSTYFNPSLRSRVTMSVDTSKNQFSLKLSSVTAADTAVYYCARGIAVAPFDYWGQGTLVTVSSASTKGPSVFPLAPSSKSTSGGTAALGCLVKDYFPEPVTVSWNSGALTSGVHTFPAVLQSSGLYSLSSVVTVPSSSLGTQTYICNVNHKPSNTKVDKRVEPKSCDKTHTCPPCPAPEAAGGPSVFLFPPKPKDTLYITREPEVTCVVVDVSHEDPEVKFNWYVDGVEVHNAKTKPREEQYNSTYRVVSVLTVLHQDWLNGKEYKCKVSNKALPAPIEKTISKAKGQPREPQVYTLPPSREEMTKNQVSLTCLVKGFYPSDIAVEWESNGQPENNYKTTPPVLDSDGSFFLYSKLTVDKSRWQQGNVFSCSVMHEALHNHYTQKSLSLSPG
light: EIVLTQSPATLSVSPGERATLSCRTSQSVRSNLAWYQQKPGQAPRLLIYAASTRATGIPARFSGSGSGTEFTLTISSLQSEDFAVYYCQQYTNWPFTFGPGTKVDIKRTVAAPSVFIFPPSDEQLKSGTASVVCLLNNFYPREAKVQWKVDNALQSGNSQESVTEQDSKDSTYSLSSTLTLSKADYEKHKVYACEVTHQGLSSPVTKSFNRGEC
modifications: DL1 by interchain cysteine conjugation; DL1 (maleimido-b-glucuronide-exatecan) by interchain cysteine conjugation; DAR 8.16
[1]
  SPECIFICITY FACTOR (IC50 in CEACAM5-negative MDA-MB-231 divided by IC50 in MKN-45): 201 fold
  SPECIFICITY FACTOR (IC50 in CEACAM5-negative MDA-MB-231 divided by IC50 in SK-CO-1): 874 fold
  SPECIFICITY FACTOR (IC50 in CEACAM5-negative MDA-MB-231 divided by IC50 in SNU-16): 242 fold
[2]
  IC50 [M], cell viability assay (Cell Titer-Glo, 6 days), LS174T cells: 6e-10 M
  IC50 [M], cell viability assay (Cell Titer-Glo, 6 days), MKN-45 cells: 5.2e-10 M
  IC50 [M], cell viability assay (Cell Titer-Glo, 6 days), SK-CO-1 cells: 7.6e-11 M
  IC50 [M], cell viability assay (Cell Titer-Glo, 6 days), SNU-16 cells: 3.6e-10 M

B2: ADC2-M (conjugate of mAb2-M with DL1-M) (antibody, human IgG1, kappa, L234A L235A)
heavy: EVQLQESGPGLVKPSQTLSLTCTVSDGSVSRGGYYLTWIRQHPGKGLEWIGYIYYSGSTYFNPSLRSRVTMSVDTSKNQFSLKLSSVTAADTAVYYCARGIAVAPFDYWGQGTLVTVSSASTKGPSVFPLAPSSKSTSGGTAALGCLVKDYFPEPVTVSWNSGALTSGVHTFPAVLQSSGLYSLSSVVTVPSSSLGTQTYICNVNHKPSNTKVDKRVEPKSCDKTHTCPPCPAPEAAGGPSVFLFPPKPKDTLYITREPEVTCVVVDVSHEDPEVKFNWYVDGVEVHNAKTKPREEQYNSTYRVVSVLTVLHQDWLNGKEYKCKVSNKALPAPIEKTISKAKGQPREPQVYTLPPSREEMTKNQVSLTCLVKGFYPSDIAVEWESNGQPENNYKTTPPVLDSDGSFFLYSKLTVDKSRWQQGNVFSCSVMHEALHNHYTQKSLSLSPG
light: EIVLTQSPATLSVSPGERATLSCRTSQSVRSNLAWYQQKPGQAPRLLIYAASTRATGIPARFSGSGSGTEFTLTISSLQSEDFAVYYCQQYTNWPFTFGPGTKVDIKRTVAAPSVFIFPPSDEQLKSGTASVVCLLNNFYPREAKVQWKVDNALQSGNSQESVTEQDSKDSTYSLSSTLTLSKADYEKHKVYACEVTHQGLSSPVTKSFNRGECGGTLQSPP
modifications: MTG tag GGTLQSPP at the C-terminus is a conjugation site for DL1-M; DL1-M (NH2-GGG-b-glucuronide-exatecan) coupled by microbial transglutaminase; DAR 3.86 for the whole antibody; residues carrying the drug not stated
[1]
  SPECIFICITY FACTOR (IC50 in MDA-MB-231, set to 100 nM, divided by IC50 in MKN-45): > 167 fold
  SPECIFICITY FACTOR (IC50 in MDA-MB-231, set to 100 nM, divided by IC50 in SK-CO-1): > 632 fold
  SPECIFICITY FACTOR (IC50 in MDA-MB-231, set to 100 nM, divided by IC50 in SNU-16): > 207 fold
[2]
  IC50 [M], cell viability assay (Cell Titer-Glo, 6 days), LS174T cells: 8.5e-10 M
  IC50 [M], cell viability assay (Cell Titer-Glo, 6 days), MKN-45 cells: 1.2e-09 M
  IC50 [M], cell viability assay (Cell Titer-Glo, 6 days), SK-CO-1 cells: 1.1e-10 M
  IC50 [M], cell viability assay (Cell Titer-Glo, 6 days), SNU-16 cells: 5.1e-09 M

B3: Variant 1 (VH1.00/VL1.00) (antibody, V domains shown)
VH: EVQLQESGPGLVKPSQTLSLTCTVSDGSVSRGGYYLTWIRQHPGKGLEWIGYIYYSGSTYFNPSLRSRLTMSVDTSKNQFSLKLSSVTAADTAVYYCARGIAVAPFDYWGQGTLVTVSS
VL: ETTLTQSPATLSVSPGERATLSCRTSQSVRSNLAWYQQKPGQAPRLLIYAASTRATGIPARFSGSGSGTEFTLTIGSLQSEDFAVYFCQQYTNWPFTFGPGTKVEIKR
notes: also called optimized antibody Variant 1
[3]
  binding result: binds

B4: Variant 6 (VH1.02/VL1.00) (antibody, V domains shown)
VH: EVQLQESGPGLVKPSQTLSLTCTVSDGSVSRGGYYLTWIRQHPGKGLEWIGYIYYSGSTYFNPSLRSRVTMSVDTSKNQFSLKLSSVTAADTAVYYCARGIAVAPFDYWGQGTLVTVSS
VL: ETTLTQSPATLSVSPGERATLSCRTSQSVRSNLAWYQQKPGQAPRLLIYAASTRATGIPARFSGSGSGTEFTLTIGSLQSEDFAVYFCQQYTNWPFTFGPGTKVEIKR
notes: also called optimized antibody Variant 6
[3]
  binding result: binds

B5: Rituximab (antibody, human IgG1, kappa, V domains shown)
VH: QVQLQQPGAELVKPGASVKMSCKASGYTFTSYNMHWVKQTPGRGLEWIGAIYPGNGDTSYNQKFKGKATLTADKSSSTAYMQLSSLTSEDSAVYYCARSTYYGGDWYFNVWGAGTTVTVSA
VL: QIVLSQSPAILSASPGEKVTMTCRASSSVSYIHWFQQKPGSSPKPWIYATSNLASGVPVRFSGSGSGTSYSLTISRVEAEDAATYYCQQWTSNPPTFGGGTKLEIKR
notes: also called mAb4-M; anti-CD20 control antibody
[4]
  binding result: no binding (tested: 2000 nM)

B6: ADC1 (mAb1-glucuronid-exatecan) (antibody, human IgG1, kappa)
heavy: EVQLQESGPGLVKPSQTLSLTCTVSDGSVSRGGYYLTWIRQHPGKGLEWIGYIYYSGSTYFNPSLRSRVTMSVDTSKNQFSLKLSSVTAADTAVYYCARGIAVAPFDYWGQGTLVTVSSASTKGPSVFPLAPSSKSTSGGTAALGCLVKDYFPEPVTVSWNSGALTSGVHTFPAVLQSSGLYSLSSVVTVPSSSLGTQTYICNVNHKPSNTKVDKRVEPKSCDKTHTCPPCPAPPVAGPSVFLFPPKPKDTLMISRTPEVTCVVVDVSHEDPEVKFNWYVDGVEVHNAKTKPREEQYNSTYRVVSVLTVLHQDWLNGKEYKCKVSNKALPSSIEKTISKAKGQPREPQVYTLPPSREEMTKNQVSLTCLVKGFYPSDIAVEWESNGQPENNYKTTPPVLDSDGSFFLYSKLTVDKSRWQQGNVFSCSVMHEALHNHYTQKSLSLSPG
light: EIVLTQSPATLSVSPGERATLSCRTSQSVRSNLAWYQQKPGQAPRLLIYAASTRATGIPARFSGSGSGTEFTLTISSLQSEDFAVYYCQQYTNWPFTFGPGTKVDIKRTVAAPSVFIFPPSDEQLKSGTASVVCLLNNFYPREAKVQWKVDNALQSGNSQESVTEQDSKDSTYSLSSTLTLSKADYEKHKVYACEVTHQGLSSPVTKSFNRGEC
modifications: drug-linker DL1 on the reduced interchain cysteine; drug-linker DL1 (maleimido-beta-glucuronide-exatecan) on sulfur of reduced interchain cysteines; DAR 7.9 for the whole antibody
[5]
  fold higher potency than ADC SAR DM4 against SK-CO-1 cells (viability assay): 2.9 fold
[6]
  IC50 [M], cell viability assay (Cell Titer-Glo, 6 days), LS174T cells: 3.8e-10 M
  IC50 [M], cell viability assay (Cell Titer-Glo, 6 days), MKN-45 cells: 6.2e-10 M
  IC50 [M], cell viability assay (Cell Titer-Glo, 6 days), SK-CO-1 cells: 8.5e-11 M
  IC50 [M], cell viability assay (Cell Titer-Glo, 6 days), SNU-16 cells: 3.2e-10 M

B7: ADC2 (mAb1-AAN-exatecan) (antibody, human IgG1, kappa)
heavy: EVQLQESGPGLVKPSQTLSLTCTVSDGSVSRGGYYLTWIRQHPGKGLEWIGYIYYSGSTYFNPSLRSRVTMSVDTSKNQFSLKLSSVTAADTAVYYCARGIAVAPFDYWGQGTLVTVSSASTKGPSVFPLAPSSKSTSGGTAALGCLVKDYFPEPVTVSWNSGALTSGVHTFPAVLQSSGLYSLSSVVTVPSSSLGTQTYICNVNHKPSNTKVDKRVEPKSCDKTHTCPPCPAPPVAGPSVFLFPPKPKDTLMISRTPEVTCVVVDVSHEDPEVKFNWYVDGVEVHNAKTKPREEQYNSTYRVVSVLTVLHQDWLNGKEYKCKVSNKALPSSIEKTISKAKGQPREPQVYTLPPSREEMTKNQVSLTCLVKGFYPSDIAVEWESNGQPENNYKTTPPVLDSDGSFFLYSKLTVDKSRWQQGNVFSCSVMHEALHNHYTQKSLSLSPG
light: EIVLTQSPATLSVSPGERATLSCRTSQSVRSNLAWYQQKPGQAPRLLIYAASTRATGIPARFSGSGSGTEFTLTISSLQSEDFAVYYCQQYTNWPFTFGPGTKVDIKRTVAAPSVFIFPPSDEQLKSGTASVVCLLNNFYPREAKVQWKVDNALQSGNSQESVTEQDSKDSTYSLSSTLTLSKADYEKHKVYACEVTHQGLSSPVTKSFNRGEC
modifications: drug-linker DL2 on the reduced interchain cysteine; drug-linker DL2 (legumain-cleavable Ala-Ala-Asn linker, exatecan) on reduced interchain cysteines; DAR 7.6 for the whole antibody
[5]
  fold higher potency than ADC SAR DM4 against SK-CO-1 cells (viability assay): 2.7 fold
[6]
  IC50 [M], cell viability assay (Cell Titer-Glo, 6 days), LS174T cells: 2.8e-10 M
  IC50 [M], cell viability assay (Cell Titer-Glo, 6 days), MKN-45 cells: 4.7e-10 M
  IC50 [M], cell viability assay (Cell Titer-Glo, 6 days), SK-CO-1 cells: 6.9e-11 M
  IC50 [M], cell viability assay (Cell Titer-Glo, 6 days), SNU-16 cells: 2.8e-10 M

B8: hmn-14 (hMN14, antibody of labetuzumab govitecan) (antibody, human IgG1, kappa, V domains shown)
VH: EVQLVESGGGVVQPGRSLRLSCSASGFDFTTYWMSWVRQAPGKGLEWIGEIHPDSSTINYAPSLKDRFTISRDNAKNTLFLQMDSLRPEDTGVYFCASLYFGFPWFAYWGQGTPVTVSS
VL: DIQLTQSPSSLSASVGDRVTITCKASQDVGTSVAWYQQKPGKAPKLLIYWTSTRHTGVPSRFSGSGSGTDFTFTISSLQPEDIATYYCQQYSLYRSFGQGTKVEIKR
[7]
  EC50: 11.8 nM

From US20250179210A1 (Merck KGaA, published 2025)
